In paper PMC11499270 (Nature, 2024):

Assays:
[1] = pigs; previously observed; cited from earlier work
[2] = target: human insulin receptor A (human) (UniProt P06213); assay: radioligand binding

| fold increase in hIR-A affinity, 20 vs 0 mM glucose, without albumin [2] [fold] | Substance | half-life after s.c. administration [1] [h] |
| --- | --- | --- |
|  | insulin detemir | 6.5 |
| 6.8 | NNC2215 (from UniProt P01308 90-110; P01308 25-53) (ligand) |  |
